Laboratory results from patent US20230279079A1 (published 2023).
Numbering of substitutions follows the chain as printed.

B1: FG 12C (antibody, V domains shown)
VH: EVQLVESGGGLVQPGRSLRLSCAASGFTFDDYAMHWVRQAPGKGLEWVSGISWNSGSIGYADSVKGRFTISRDNAKNSLYLQMNSLRAEDTALYYCAKDMRVHDYGDYYFDYWGQGTLVTVSS
VL: SYELTQPPSVSVAPGKTARITCGGNNIGSKSVHWYQQKPGQAPVLVIYYDSDRPSGIPERFSGSNSGNTATLTISRVEAGDEADYYCQVWDSSSDHPVFGGGTKLTVL
B2: FN 8C (antibody, V domains shown)
VH: QVQLVESGGGVVQPGRSLRLSCAASGFTFSSYGMHWVRQAPGKGLEWVAVISYDGSNKYYADTVKGRFTISRDNSKNTLYLQMNSLRAEDTAVYYCARERTYYDILTGYRHYYGMDVWGQGTTVTVSS
VL: B1 VL with K16Q, I47V, Y49D, P97W
B3: FN 2C (antibody, V domains shown)
VH: EVQLLESGGGVVQPGRSLRLSCAASGFNFNNYGMHWVRQAPGKGLEWVATISYEGSKKFYVDSVKGRFTISKDNSKNTLYLQMNSLRVDDTAFYYCAKRREIFWLGEPPLSDAFDFWGQGTMVTVSS
VL: QSVLTQPPSVSGAPGQRVTISCTGSGSNIGAGYDVHWYQFLPGTAPQLLIYGNNNRPSGVPDRFSGSKSGTSASLAITGLQAEDEADYYCQSYDSSLSGSVFGGGTKLTVL
B4: EZ 7A (antibody, V domains shown)
VH: EVQLVESGAEVKKPGESLKISCKGSGYSFTSYWIGWVRQMPGKGLEWMGIIYPGDSDTRYSPSFQGQVTISADKSISTAYLQWSSLKASDTAMYYCARGWVYRGFPYYGMDVWGQGTMVTVSS
VL: QSALTQPRSVSGSPGQSVTISCTGTSSDVGGYNYVSWYQQHPGKAPKLMIYDVSKRPSGVPDRFSGSKSGNTASLTISGLQAEDEADYYCCSYAGSYTLVFGGGTKLTVL
B5: FI 3A (antibody, V domains shown)
VH: EVQLLESGGGLIQPGGSLRLSCAASGFTVSSNYMSWVRQAPGKGLEWVSVIYSGGSTYYADSVKGRFTISRDNSKNTLYLQMNSLRAEDTAVYYCARDHVRPGMNIWGQGTMVTVSS
VL: not shown
B6: FD 10A (antibody, V domains shown)
VH: EVQLVESGGGLVQPGGSLRLSCAASGFTFSSYWMHWVRQAPGKGLVWVSRINSDGSSTSYADSVKGRFTISRDNAKNTLYLQMNSLRAEDTAVYYCANMAFDIWGQGTMVTVSS
VL: not shown
B7: FD 7D (antibody, V domains shown)
VH: EVQLVESGAEVKKPGESLRISCKGSGYSFTSYWISWVRQMPGKGLEWMGRIDPSDSYTNYSPSFQGHVTISADKSISTAYLQWSSLKASDTAMYYCARHSDCSSTSCYFVDAFDIWGQGTMVTVSS
VL: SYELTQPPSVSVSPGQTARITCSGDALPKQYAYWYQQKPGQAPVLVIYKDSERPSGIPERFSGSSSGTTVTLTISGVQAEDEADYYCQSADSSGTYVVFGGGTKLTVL
B8: FJ 10B (antibody, V domains shown)
VH: QVQLVQSGAEVKKPGESLRISCKGSGYSFTSYWISWVRQMPGKGLEWMGRIDPSDSYTNYSPSFQGHVTISADKSISTAYLQWSSLKASDTAMYYCARLDPRYGPDYYGMDVWGQGTTVTVSS
VL: AIRMTQSPSSLSASVGDRVTITCRASQSISSYLNWYQQKPGKAPKLLIHAASSLQSGVPSRFSGSGSGTDFTLTMSSLQPEDFATYYCQQSYSTPLTFGGGTKVEIR
B9: FD 11D (antibody, V domains shown)
VH: EVQLVESGGGVVQPGRSLRLSCAASGFTFSSYGMHWVRQAPGKGLEWVAVISYDGSNKYYADSVKGRFTISRDNSKNTLYLQMNSLRAEDTAVYYCAKEGAGSGWYRHHKPGYYFDYWGQGTLVTVSS
VL: not shown
B10: FI 1C (antibody, V domains shown)
VH: EVQLVESGGGLVKPGGSLRLSCAASGFTFSDYYMSWIRQAPGKGLEWVSYISSSGSTIYYADSVKGRFTISRDNAKNSLYLQMNSLRAEDTAVYYCARRSNRFLIAFDIWGQGTMVTVSS
VL: QSALTQPASVSGSPGQTITISCTGTSSDVGGYNYVSWYQQHPGKAPKLMIYEVSNRPSGVSNRFSGSKSGNTASLTISGLQAEDEADYYCSSYTSSSTLVVFGGGTKLTVP
B11: FD 7C (antibody, V domains shown)
VH: QLQLQESGPGLVKPSETLSLTCTVSGGSISSYYWSWIRQPPGKGLEWIGYIYYSGSTNYNPSLKSRVTISVDTSKNQFSLKLSSVTAADTAVYYCARDYRFGELFGRFAWFDPWGQGTLVTVSS
VL: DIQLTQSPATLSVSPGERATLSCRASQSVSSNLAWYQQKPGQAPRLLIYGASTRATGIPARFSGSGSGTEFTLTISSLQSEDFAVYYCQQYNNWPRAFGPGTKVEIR
B12: FB 1E (antibody, V domains shown)
VH: EVQLVESGAEVKKPGESLKISCQGSGYRFNSYWIAWVRQMPGKGLEWMGSIFPTDSDIRYNPSFQGQVTISADKSISIAYLQWSSLKASDTAIYYCARHWASMVRGVIRASHYYGMDVWGQGTTVTVSS
VL: QSVLTQPPSASGSPGQSVTISCSGASSDIGDYNYVSWYQQLPGKAPKLLIYEVTKRPSGVPDRFSGSKSGNTASLTVSGLQADDEADYYCSSYAFGGSDIRVFGGGTKLAVL
B13: FB 9D (antibody, V domains shown)
VH: B12 VH with E1Q, I58V, I78F
VL: B12 VL with S2P, D31K, I100T, A110T
B14: FD 5D (antibody, V domains shown)
VH: EVQLVESGGGLVQPGGSLRLSCAASGFTFSSYSMNWVRQAPGKGLEWVSYISSSSSTIYYADPVKGRFTISRDNAKNSLYLQMNSLRAEDTAVYYCASPGGITAAGTSVLFGYYGMDVWGQGTMVTVSS
VL: not shown
B15: FD 1E (antibody, V domains shown)
VH: EVQLLESGGGLVKPGGSLRLSCAASGFTFSSYSMNWVRQAPGKGLEWVSSISSSSSYIYYADSVKGRFTISRDNAKNSLYLQMNSLRAEDTAVYYCASLAAAGPETYYYYGMDVWGQGTMVTVSS
VL: not shown
B16: FD 11E (antibody, V domains shown)
VH: B15 VH with L5V
VL: not shown
B17: FD 8B (antibody, V domains shown)
VH: EVQLLESGAEVKKPGASVKVSCKVSGYTLTELSMHWVRQAPGKGLEWMGGFDPEDGETIYAQKFQGRVTMTEDTSTDTAYMELSSLRSEDTAVYYCATAAAINCSSTSCYYYYYYYGMDVWGQGTTVTVSS
VL: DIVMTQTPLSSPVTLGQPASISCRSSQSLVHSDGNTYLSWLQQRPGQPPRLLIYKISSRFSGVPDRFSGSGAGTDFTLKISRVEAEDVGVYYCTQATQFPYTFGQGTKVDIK
B18: FD 11A (antibody, V domains shown)
VH: EVQLVESGGGVVQPGRSLRLSCAASGFTFSSYGMHWVRQAPGKGLEWVAVIWYDGSNKYYADSVKGRFTISRDNSKNTLYLQMNSLRAEDTAVYYCAKGPDILTGYYNYYYYGMDVWGQGTMVTVSS
VL: QSVLTQPPSVSGAPGQRVTISCTGSSSNIGAGYDVHWYQQLPGTAPKLLIYGNSNRPSGVPDRFSGSKSGTSASLAITGLQAEDEADYYCQSYDSSLSGFYVVFGGGTKLTVL
B19: FI 4A (antibody, V domains shown)
VH: EVQLVESGGGLVKPGGSLRLSCAASGFTFSRFSMNWVRQAPGKGLEWVSSISSSGSYIYFADSVKGRFTISRDNAKNSLYLQMNSLRAEDTAIYYCATYLFGDSHTYWGQGTLVTVSS
VL: QSVLTQPHSVSESPGKTVTISCTGSSGSIASNYVQWYQQRPGSAPTTVIYEDNQRPSGVPDRFSGSIDSSSNSASLTISGLKTEDEADYYCQSYDSSNLHWVFGGGTKLTVL
B20: FM 7B (antibody, V domains shown)
VH: EVQLVQSGAEVKKPGASVKVSCKASGYTFTSYAMHWVRQAPGQRLEWMGWINTGNGNTKYSQKFQGRVTITRDTSASTAYMELSSLRSEDTAVYYCARDPTYCSSTSCYPFSWFDPWGQGTLVTVSS
VL: NFMLTQPPSVSVAPGQTARITCGGNNIGSKSVHWYQQKPGQAPVLVVYDDSDRPSGIPERFSGSNSGNTATLTISRVEAGDEADYYCQVWDSTGDHSWVFGGGTKLTVL
B21: FD 11C (antibody, V domains shown)
VH: EVQLLESGPGLVKPSETLSLTCTVSGGSISSSSYYWGWIRQPPGKGLEWIGSIYYSGSTYYNPSLKSRVTISVDTSKNQFSLKLSSVTAADTAVYYCAREYYYGSETKKYYYYYGMDVWGQGTTVTVSS
VL: not shown
B22: FJ 1C (antibody, V domains shown)
VH: QVQLQESGPGLVKPSETLSLTCTVSGYSISSGYYWGWIRQPPGKGLEWIGSIYHSGSTYYNPSLKSRVTISVDTSKNQFSLKLSSVTAADTAVYYCARDKALLWFGELFTNLFDYWGQGTLVTVSS
VL: QSALTQPASVSGSPGQSITISCTGTSSDVGGYNYVSWYQQHPGKAPKLMIYEVSNRPSGVSNRFSGSKSGNTASLTISGLQAEDEANYYCSSYTSSSTLVFGGGTKLTVL
B23: FN 12A (antibody, V domains shown)
VH: QVQLVQSGAEVKKPGSSVKVSCKASGGTFSSYAISWVRQAPGQGLEWMGRIIPILGIANYAQKFQGRVTITADKSTSTAYMELSSLRSEDTAVYYCARSGCSSTSCPSNLYYYYYGMDVWGQGTTVTVSS
VL: QSVLTQPPSVSAAPGQKVTISCSGSSSNIGNNYVSWYQQLPGTAPKLLIYDNNKRPSGIPDRFSGSKSGTSATLGITGLQTGDEADYYCGTWDSSLSALVFGGGTKLTVL
B24: FI-1C (antibody, V domains shown)
VH: B10 VH
VL: B10 VL

What follows are binders tested against SARS-CoV-2 spike extracellular domain (SARS-CoV-2, UniProt P0DTC2 14-1213) (assay: ELISA).
B1 gave a Kd of 2.54 nM. With B2 the Kd was 63.9 nM. In the case of B3, the Kd is reported as 0.3 nM. Work on B4 yielded a Kd of 1.08 nM. B5 was tested, and the Kd was 6.61 nM. Work on B6 yielded a Kd of 0.42 nM. In the case of B7, the Kd is reported as 64 nM. Work on B8 yielded a Kd of 7.57 nM. B9 was tested, and the Kd was 3.54 nM. B10 gave a Kd of 1.18 nM. In the case of B11, the Kd is reported as 0.18 nM. B12 showed a Kd of 0.41 nM. For B13, the Kd was 0.29 nM. Binder B14 has a Kd of 0.58 nM. Binder B15 has a Kd of 20.5 nM. With B16 the Kd was 19.5 nM. For B17, the Kd was 10.4 nM. B18 gave a Kd of 0.4 nM. B19 showed a Kd of 0.41 nM. Work on B20 yielded a Kd of 0.51 nM. B21 showed a Kd of 0.98 nM. B22 gave a Kd of 0.57 nM. In the case of B23, the Kd is reported as 0.38 nM.

The binders below were run against T1, SARS-CoV-2 spike receptor binding domain (RBD) (SARS-CoV-2, UniProt P0DTC2 319-541) (assay: flow).
For B4, the Kd was 11.4 nM. Work on B5 yielded a Kd of 3.83 nM. For B8, the Kd was 3.73 nM. For B14, the Kd was 0.93 nM.

Biological target: T1, SARS-CoV-2 spike receptor binding …
Test: flow
Remark: another data set of the same source
Work on B10 yielded a Kd of 12.2 nM. In the case of B18, the Kd is reported as 0.75 nM. For B19, the Kd was 7.9 nM. In the case of B20, the Kd is reported as 0.64 nM. B23 gave a Kd of 1.12 nM.

Each binder was assayed against RBD-VLP (SARS-CoV-2, UniProt P0DTC2 340-538) (assay: not given).
For B24, the IC50 was 23 nM.
